In US20220220215A1 (CRESCENDO BIOLOGICS, published 2022):

Experiments:
Assay in all cases: ELISA, plate coated with 1 ug/ml recombinant protein, anti His-HRP detection
[1] = target: T1, human HVEM (R&D Systems cat no. HVM-H5258) (human, UniProt Q92956 39-202, limits assumed)
T1 construct: Bought protein
T1 sequence (looked up): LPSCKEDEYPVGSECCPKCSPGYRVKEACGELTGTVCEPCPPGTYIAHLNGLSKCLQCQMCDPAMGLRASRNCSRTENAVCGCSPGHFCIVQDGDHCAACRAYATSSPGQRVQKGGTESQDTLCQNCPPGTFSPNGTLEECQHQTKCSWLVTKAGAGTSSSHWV
Experimental: (§1) Specificity of binding for CD137 over the tumour necrosis factor receptor family members OX40, GITR (Glucocorticoid-induced TNFR-related), CD40 and HVEM was determined using an ELISA assay. Nunc Maxisorp plates were coated with 1 ug/ml human CD137-Fc recombinant protein (Acro Biosystems 41B-H5258), human GITR-Fc (R&D Systems cat no. 689-GR) human OX40-Fc (R&D Systems cat no. 3388-OX), human CD40 (R&D Systems cat no. CDO-H5253), human HVEM (R&D Systems cat no. HVM-H5258) in PBS overnight at 4° C. then washed twice with PBS. Non-specific protein interactions were blocked by incubation with 1% (w/v) skimmed milk powder (Marvel®) in PBS/0.1% Tween-20 for 1 hour at room temperature. Plates were washed twice with PBS then VH or antibody control (1 ug/ml) added for 1 hour at room temperature. Following three washes with PBS/0.1% Tween-20 a 1:1000 dilution of anti His-HRP (VH detection) or anti mouse-HRP (positive control mouse monoclonal antibody detection) was added in 1% Marvel/PBS/0.1% Tween-20. The detection antibodies were allowed to bind for 1 hour at room temperature then the plates were washed twice in PBS/0.1% Tween-20 and once in PBS. The ELISA was developed using TMB substrate and the reaction was stopped by the addition of 50 ul 0.5M H₂SO₄ solution. The absorbance at 450 nm was measured using the BMG Pherastar.

[2] = target: T2, human GITR-Fc (R&D Systems cat no. 689-GR) (human, UniProt Q9Y5U5 26-161)
T2 construct: Bought protein; also called Glucocorticoid-induced TNFR-related
T2 sequence (looked up): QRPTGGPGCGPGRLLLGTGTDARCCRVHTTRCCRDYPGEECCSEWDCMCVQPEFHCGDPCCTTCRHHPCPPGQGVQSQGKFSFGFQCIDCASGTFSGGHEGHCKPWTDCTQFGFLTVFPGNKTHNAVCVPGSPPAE
Experimental: as §1

[3] = target: T3, human OX40-Fc (R&D Systems cat no. 3388-OX) (human, UniProt P43489 29-216)
T3 construct: Bought protein
T3 sequence (looked up): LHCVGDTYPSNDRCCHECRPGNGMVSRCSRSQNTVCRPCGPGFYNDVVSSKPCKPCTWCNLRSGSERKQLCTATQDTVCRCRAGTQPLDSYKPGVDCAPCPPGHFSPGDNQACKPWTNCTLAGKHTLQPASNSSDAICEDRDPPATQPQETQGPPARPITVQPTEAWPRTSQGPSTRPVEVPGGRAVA
Experimental: as §1

[4] = target: T4, human CD40 (R&D Systems cat no. CDO-H5253) (human, UniProt P25942 21-193, limits assumed)
T4 construct: Bought protein
Experimental: as §1

T4 sequence (P25942 21-193 limits assumed): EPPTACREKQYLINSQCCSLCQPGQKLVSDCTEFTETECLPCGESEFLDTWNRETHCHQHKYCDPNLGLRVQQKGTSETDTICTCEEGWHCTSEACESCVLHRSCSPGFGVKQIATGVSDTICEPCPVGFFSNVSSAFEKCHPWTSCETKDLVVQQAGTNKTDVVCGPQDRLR

binding result [1]: no binding (tested: 1 ug/ml)
binding result [2]: no binding (tested: 1 ug/ml)
binding result [3]: no binding (tested: 1 ug/ml)
binding result [4]: no binding (tested: 1 ug/ml)
B1: 003BB172-E01-14 (VHH)
VH: EVQLVESGGGVVQPGRSLRLSCAASGFTFSNYGMHWVRQAPGKGLEWVAVISNDGNTKTYADSVKGRFTISRDNSKNTLYLQMNSLRAEDTAVYYCAQDETTTVTASYYFDYWGQGTLVTVSS
notes: Human VH single domain antibody, His-tagged in the assays; not shown: C-terminal 6xHIS tag
